Source: patent US20080241919A1, “Defined media for pluripotent stem cell culture” (The Burnham Institute of Medical Research, priority 2003, published 2008)

System: human embryonic stem cells (hESCs)
Test: Other growth factors in place of bFGF for undifferentiated growth of hESCs
Type: cell-based
Conditions: feeder- and serum-free conditions
Procedure: All the growth factors were dissolved in a PBS buffer that contained 0.5% BSA, 1 mM DTT (Dithiothreitol) and 10% glyceral as a 10 μg/ml (500×) stock solution and stored in aliquots at −80° C. These factors were added individually to the hESC cultures at a concentration of 20 ng/ml, in the absence of bFGF or in the presence of a low concentration of bFGF (4 ng/ml). Seven days after seeding undifferentiated hESCs on laminin/collagen-coated plates, the cultures were examined.

B1: activin-A: human growth factor tested in place of bFGF (protein, UniProt P08476 311-426, looked up)
Inhibin beta A chain: GLECDGKVNICCKKQFFVSFKDIGWNDWIIAPSGYHANYCEGECPSHIAGTSGSSLSFHSTVINHYRMRGHSPFANLKSCCVPTKLRPMSMLYYDDGQNIIKKDIQNMIVEECGCS
ability to replace bFGF in supporting undifferentiated growth of hESCs: can not replace bFGF
